In PMC5959800 (The international journal of biochemistry & cell biology, 2018):

Target: T1, Histidine-tagged AIMP1 (immobilised in SPR) (UniProt Q12904 1-312)
T1 sequence (looked up): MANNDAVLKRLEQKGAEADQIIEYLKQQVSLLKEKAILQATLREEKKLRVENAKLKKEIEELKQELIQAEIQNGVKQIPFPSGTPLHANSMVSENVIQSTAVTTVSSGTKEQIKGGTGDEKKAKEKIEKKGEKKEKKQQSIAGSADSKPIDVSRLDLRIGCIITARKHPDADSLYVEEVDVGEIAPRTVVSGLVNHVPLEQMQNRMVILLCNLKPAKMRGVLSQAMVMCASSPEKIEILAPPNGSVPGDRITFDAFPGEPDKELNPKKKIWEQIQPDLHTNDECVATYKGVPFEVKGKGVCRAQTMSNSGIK
Experiment: SPR

Kd: 25.3 nM
B1: His-tagged AIMP3 (natural protein, UniProt O43324 1-174, looked up)
chain: MAAAAELSLLEKSLGLSKGNKYSAQGERQIPVLQTNNGPSLTGLTTIAAHLVKQANKEYLLGSTAEEKAIVQQWLEYRVTQVDGHSSKNDIHTLLKDLNSYLEDKVYLTGYNFTLADILLYYGLHRFIVDLTVQEKEKYLNVSRWFCHIQHYPGIRQHLSSVVFIKNRLYTNSH
